Drawing on the emibetuzumab library of Makowski et al. (2022), this text covers non-specific binding call for 118 variants.

To fix the notation:
B1: VH:VL chains; a variant is named by its letters at X, in order (parent)
chain 1: QVQLVQSGAEVKKPGASVKVSCKASGYTFTDYXMHWVRQAPGQGLEWMGXVNPNXXXTTYNQKFEGRVTMTTDTSTSTAYMELRSLRSDDTAVYYCARXNXLDXWGQGTTVTVSS
chain 2: DIQMTQSPSSLSASVGDRVTITCSVSSSVSSIYLHWYQQKPGKAPKLLIYSTSNLASGVPSRFSGSGSGTDFTLTISSLQPEDFATYYCQVYSGYPLTFGGGTKVEIK

In this data set the parent is B1. Briefly: yeast display scFab, FACS + sequencing. The essentials:
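The non-specific binding call was based on sorted and sequenced yeast displaying a heavy-chain CDR mutant scFab library. Labelling used anti-Myc with biotinylated ovalbumin (260 μg/mL in PBSB, 3 h, room temperature) or soluble membrane proteins (130 μg/mL, 20 min on ice), and FACS collected the top 25% and bottom 10% of binders in two replicates. Positive meant present in ≥3 of 4 pooled positive samples and in no negatives, and negative meant the converse.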
For the variant YRAGAAVA, the non-specific binding call is given as “binds”.

SKTRGAWD: the non-specific binding call was “binds”.

With VRGRDFGV, the non-specific binding call is “binds”.

Take VTGGDDGY: the non-specific binding call was “no binding”.

As to VAGGDDWV, the non-specific binding call is reported as “no binding”.

As for FRRGGSGV, the non-specific binding call was “binds”.

AARADSWV: the non-specific binding call was “no binding”.

Regarding SRATAYSD, the non-specific binding call is given as “binds”.

For DRAGDAVD, the non-specific binding call is on record as “no binding”.

YRGGDSAY: the non-specific binding call is recorded as “no binding”.

In the case of YRGGASWV, the non-specific binding call is recorded as “binds”.

Consider SAEGDAAD, for which the non-specific binding call is listed as “no binding”.

Consider VEARGDWV, for which the non-specific binding call was “no binding”.

As to YRERGAAD, the non-specific binding call is “binds”.

Regarding DRGRDDAA, the non-specific binding call is on record as “no binding”.

Regarding YKGGSAWY, the non-specific binding call is “binds”.

As for YRRRGDVD, the non-specific binding call is on record as “binds”.

Consider YRRRGDVY, for which the non-specific binding call is “binds”.

For DRGGDDVV, the non-specific binding call is listed as “no binding”.

Turning to VKGRADWV, the non-specific binding call is reported as “no binding”.

For the variant FKTKNYVV, the non-specific binding call is “binds”.

For DRGRDAGD, the non-specific binding call is “no binding”.

Regarding DEGGTDSA, the non-specific binding call is “no binding”.

In the case of YAGRGVGD, the non-specific binding call was “binds”.

Take ARGRGSAA: the non-specific binding call is on record as “binds”.

In the case of YRREGSGV, the non-specific binding call is listed as “binds”.

DRAGDAAA: the non-specific binding call is “no binding”.

With FEETDASA, the non-specific binding call is given as “binds”.

On to SRRETFVF, for which the non-specific binding call is recorded as “binds”.

For YKARGAGA, the non-specific binding call is “binds”.

For VAEKGSGA, the non-specific binding call is reported as “no binding”.

VETEGDAV: the non-specific binding call is “no binding”.

On to DRGRDDVA, for which the non-specific binding call was “no binding”.

VGRATVGS: the non-specific binding call is given as “binds”.

Consider SERRDVLY, for which the non-specific binding call is recorded as “binds”.

For the variant DTGRADWA, the non-specific binding call is “no binding”.

For YKGGSAAA, the non-specific binding call is “binds”.

AKGKGAAV: the non-specific binding call is given as “binds”.

For FRTGDSWD, the non-specific binding call is recorded as “no binding”.

Consider YRGKAAVD, for which the non-specific binding call was “binds”.

Consider YRRRGSSD, for which the non-specific binding call was “binds”.

On to YRRRGSVA, for which the non-specific binding call is listed as “binds”.

Consider DAGGASLD, for which the non-specific binding call was “no binding”.

Take DKTKSDWV: the non-specific binding call is “no binding”.

On to YARADDSA, for which the non-specific binding call is “no binding”.

YTKGTSVA chain 1 E65K: the non-specific binding call was “binds”.

As for YTEAADGA, the non-specific binding call is given as “no binding”.

With VRAGGSVA, the non-specific binding call is listed as “binds”.

Turning to FRERGAAA, the non-specific binding call is “binds”.

Regarding VTREGAVA, the non-specific binding call is listed as “no binding”.

VAGGDFGV: the non-specific binding call is reported as “no binding”.

As to VKGRASGY, the non-specific binding call is listed as “no binding”.

In the case of YRARGAWY, the non-specific binding call is “binds”.

For SEGGDAGD, the non-specific binding call is given as “no binding”.

As to STGGNDAD, the non-specific binding call is “no binding”.

Turning to YRKGGAWF, the non-specific binding call is reported as “binds”.

In the case of YRAGDFGV, the non-specific binding call is recorded as “no binding”.

On to VRRRGAGD, for which the non-specific binding call is “binds”.

With YAATADSS, the non-specific binding call is “no binding”.

YRTRGAVD: the non-specific binding call was “binds”.

In the case of AGERNVAS, the non-specific binding call is “binds”.

As to DKEGGDAS, the non-specific binding call is given as “no binding”.

Take DAGGAAAD: the non-specific binding call was “no binding”.

Turning to VAGTGASD, the non-specific binding call is reported as “no binding”.

Take FKGRGAVD: the non-specific binding call is recorded as “binds”.

With FKGRGAVY, the non-specific binding call is given as “binds”.

Take VRGKDSLD: the non-specific binding call is reported as “no binding”.

For the variant FATRASGD, the non-specific binding call is “binds”.

In the case of VRAGDDGV, the non-specific binding call is on record as “no binding”.

On to FRKGDASD, for which the non-specific binding call is “binds”.

In the case of VRAGDSLD, the non-specific binding call was “no binding”.

VRRGDSVA: the non-specific binding call is recorded as “binds”.

As to SKGRGALA, the non-specific binding call is given as “binds”.

VKGRADVF: the non-specific binding call is reported as “no binding”.

Consider FRGESSAD, for which the non-specific binding call was “binds”.

For VTTGGDGV, the non-specific binding call is “no binding”.

VRRGSSAV: the non-specific binding call was “binds”.

Consider VKEKGDWV, for which the non-specific binding call is given as “no binding”.

As for YRAGGVAV, the non-specific binding call was “binds”.

With YKGRGFGD, the non-specific binding call is listed as “binds”.

In the case of SETGNVWF, the non-specific binding call is “no binding”.

Consider YRGAGAAD, for which the non-specific binding call was “binds”.

For the variant SRGRGFVA, the non-specific binding call was “binds”.

As for DAEGDDGA, the non-specific binding call is given as “no binding”.

Consider YRARGSSS, for which the non-specific binding call is given as “binds”.

As to YTGTGAVF, the non-specific binding call is given as “no binding”.

YRGKGAAF: the non-specific binding call is on record as “binds”.

Take VETGNDGA: the non-specific binding call is on record as “no binding”.

In the case of FKRKNSAA, the non-specific binding call is “binds”.

On to YRAGGDSA, for which the non-specific binding call is given as “no binding”.

As for YKRGSSGF, the non-specific binding call was “binds”.

For the variant YKARGAWA, the non-specific binding call is “binds”.

For FRAGGSGA, the non-specific binding call was “binds”.

With VRAGGDVF, the non-specific binding call is listed as “no binding”.

Take YRERNAAA: the non-specific binding call is reported as “binds”.

With SAGEGDGV, the non-specific binding call is “no binding”.

For DKGGGFAV, the non-specific binding call is given as “no binding”.

As for YRGRTSLD, the non-specific binding call was “binds”.

With YRKGSSVS, the non-specific binding call was “binds”.

Consider SRGKGSGV, for which the non-specific binding call is on record as “binds”.

As to YKGRGAAF, the non-specific binding call is recorded as “binds”.

Take VTAGDDGS: the non-specific binding call is recorded as “no binding”.

Take DKEGGDGA: the non-specific binding call is reported as “no binding”.

For DRTGDDVY, the non-specific binding call is listed as “no binding”.

For the variant SGEGNSWA, the non-specific binding call is “no binding”.

With YKGKGSGS, the non-specific binding call is “binds”.

Regarding AKTGDSSD, the non-specific binding call is “no binding”.

In the case of YAAGSFGY, the non-specific binding call was “binds”.

As to VEAGDDWV, the non-specific binding call is “no binding”.

On to DTGTGDWV, for which the non-specific binding call is “no binding”.

As to VEKGGDGV, the non-specific binding call is recorded as “no binding”.

As for ATTGSASF, the non-specific binding call is “no binding”.

VKGRADLV: the non-specific binding call was “no binding”.

For the variant YAGRGDLA, the non-specific binding call is “no binding”.

For the variant VRTEDSSV, the non-specific binding call was “no binding”.

As to YRARSFGS, the non-specific binding call was “binds”.

In the case of SEARNDGA, the non-specific binding call is “no binding”.

As to SAGRSDLV chain 1 R67H, the non-specific binding call is reported as “no binding”.
